This is an account of results in PMC7076015, “An epilepsy-associated mutation in the nuclear import receptor KPNA7 reduces nuclear localization signal binding”.

The target of data set [1] is T1, MBP-CTCF(F4-F8) (Homo sapiens, UniProt P49711 351-489).
T1 sequence: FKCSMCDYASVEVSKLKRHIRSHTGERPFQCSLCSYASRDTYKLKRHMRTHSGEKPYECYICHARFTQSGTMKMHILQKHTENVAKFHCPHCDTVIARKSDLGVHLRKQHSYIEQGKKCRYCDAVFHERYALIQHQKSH
The experiment in a line: fluorescence anisotropy; 100 uM ZnCl2; apparent KD, fit bounds fixed to WT; above top protein concentration 34.5 uM; 20 mM Tris pH 8, 200 mM KCl, 100 uM ZnCl2, 1 mM DTT, 25 C; 10 nM dsDNA, MBP-CTCF up to 34.5 uM. The conditions noted are these: protein: recombinant; tags: MBP (N-terminal, pMAL-c2g); label: 6-FAM at 5' end of reverse strand; blunt.

The target of data set [2] is T1, MBP-CTCF(F4-F8). The experiment in a line: fluorescence anisotropy; 100 uM ZnCl2; apparent KD; 20 mM Tris pH 8, 200 mM KCl, 100 uM ZnCl2, 1 mM DTT, 25 C; 10 nM dsDNA, MBP-CTCF up to 34.5 uM. To be noted: protein: recombinant; tags: MBP (N-terminal, pMAL-c2g); label: 6-FAM at 5' end of reverse strand; blunt. Background: Polarisation of emitted light reports the rotation of a fluorescent probe.

B1: KPNA7 exon 7 CTCF motif c.1030G>C (dsDNA)
DNA 1: ATCCAGAAGCAGGCAG
DNA 2: CTGCCTGCTTCTGGAT
Take B1: in data set [1], the Kd is 76 ± 16.2 µM.

B2: KPNA7 exon 7 CTCF motif WT (dsDNA)
DNA 1: ATCCAGAAGGAGGCAG
DNA 2: CTGCCTCCTTCTGGAT
B2: the Kd in data set [2] amounted to 1.76 ± 0.084 µM.
